Here are results for one substance from paper PMC10602870.

Holding throughout (assay): native gel or EMSA; binding titrations of 80N0 nucleosomes with Chd1 in the presence of AMP-PNP and salmon sperm competitor DNA; observed (apparent) Kd; read from gels (Supplementary Figure S6)
In general terms: In EMSA bound probe runs differently from free probe, usually more slowly.

Assay [1] has as its target 80N0 Widom 601 nucleosome with pairs of abasic sites at both SHL2 sites (SHL+/-2, 20 bp from the dyad), Xenopus laevis histone octamer with H2B(S53C) (Xenopus laevis).
For assay [2], the target named is 80N0 Widom 601 nucleosome with 2 bp DNA mismatches at both SHL2.7 sites (SHL+/-2.7, 27 bp from the dyad), Xenopus laevis histone octamer with H2B(S53C) (Xenopus laevis).
Assay [3] concerns the target 80N0 Widom 601 nucleosome with pairs of abasic sites at both SHL2.7 sites (SHL+/-2.7, 27 bp from the dyad), Xenopus laevis histone octamer with H2B(S53C) (Xenopus laevis).
Assay [4] concerns the target 80N0 nucleosome, canonical Widom 601 DNA, Xenopus laevis histone octamer with H2B(S53C) (Xenopus laevis).
Assay [5] has as its target 80N0 Widom 601 nucleosome with 2 bp DNA mismatches at both SHL2 sites (SHL+/-2, 20 bp from the dyad), Xenopus laevis histone octamer with H2B(S53C) (Xenopus laevis).

In the case of “Chd1 chromatin remodeler (from UniProt P32657 1-1468) (enzyme)”, the Kd in assay [1] was 10000 nM; in assay [2], 22.2 nM; in assay [3], 68 nM; in assay [4], 24 nM; in assay [5], 450 nM.
